Values joined by “and” are separate entries in the source; they are usually repeats but may differ in a detail not shown here. Equal entries are not always repeated. One block for each substance: values may come before it.
What was measured:
[1] = target: PIK3R3 tandem SH2 domains (human); experiment: peptide or protein array; SH2/PTB proteins spotted on aldehyde slides, rhodamine peptide titrated in buffer B (20 mM HEPES, 100 mM KCl, 0.1% Tween-20, 5 mM DTT, pH 7.8), 1 h at room temperature; replicate assays
[2] = target: GRB7 SH2 domain (human) (UniProt Q14451); experiment: as above
Sequence of GRB7 SH2 domain (human) (Q14451 431-527): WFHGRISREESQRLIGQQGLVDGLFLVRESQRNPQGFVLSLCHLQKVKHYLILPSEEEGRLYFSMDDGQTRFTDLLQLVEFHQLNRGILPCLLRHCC

[3] = target: SH3BP2 SH2 domain (human) (UniProt P78314); experiment: as above
Sequence of SH3BP2 SH2 domain (human) (P78314 457-555): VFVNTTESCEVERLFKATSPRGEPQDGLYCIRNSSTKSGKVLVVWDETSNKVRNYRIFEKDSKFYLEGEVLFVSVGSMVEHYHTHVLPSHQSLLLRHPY

[4] = target: FES SH2 domain (human) (UniProt P07332); experiment: as above
Sequence of FES SH2 domain (human) (P07332 460-549): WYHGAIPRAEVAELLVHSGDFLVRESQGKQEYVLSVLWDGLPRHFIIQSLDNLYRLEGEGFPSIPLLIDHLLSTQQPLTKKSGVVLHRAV

[5] = target: RASA1 N-terminal SH2 domain (human) (UniProt P20936); experiment: as above
Sequence of RASA1 N-terminal SH2 domain (human) (P20936 whole entry, the tested form may be a part): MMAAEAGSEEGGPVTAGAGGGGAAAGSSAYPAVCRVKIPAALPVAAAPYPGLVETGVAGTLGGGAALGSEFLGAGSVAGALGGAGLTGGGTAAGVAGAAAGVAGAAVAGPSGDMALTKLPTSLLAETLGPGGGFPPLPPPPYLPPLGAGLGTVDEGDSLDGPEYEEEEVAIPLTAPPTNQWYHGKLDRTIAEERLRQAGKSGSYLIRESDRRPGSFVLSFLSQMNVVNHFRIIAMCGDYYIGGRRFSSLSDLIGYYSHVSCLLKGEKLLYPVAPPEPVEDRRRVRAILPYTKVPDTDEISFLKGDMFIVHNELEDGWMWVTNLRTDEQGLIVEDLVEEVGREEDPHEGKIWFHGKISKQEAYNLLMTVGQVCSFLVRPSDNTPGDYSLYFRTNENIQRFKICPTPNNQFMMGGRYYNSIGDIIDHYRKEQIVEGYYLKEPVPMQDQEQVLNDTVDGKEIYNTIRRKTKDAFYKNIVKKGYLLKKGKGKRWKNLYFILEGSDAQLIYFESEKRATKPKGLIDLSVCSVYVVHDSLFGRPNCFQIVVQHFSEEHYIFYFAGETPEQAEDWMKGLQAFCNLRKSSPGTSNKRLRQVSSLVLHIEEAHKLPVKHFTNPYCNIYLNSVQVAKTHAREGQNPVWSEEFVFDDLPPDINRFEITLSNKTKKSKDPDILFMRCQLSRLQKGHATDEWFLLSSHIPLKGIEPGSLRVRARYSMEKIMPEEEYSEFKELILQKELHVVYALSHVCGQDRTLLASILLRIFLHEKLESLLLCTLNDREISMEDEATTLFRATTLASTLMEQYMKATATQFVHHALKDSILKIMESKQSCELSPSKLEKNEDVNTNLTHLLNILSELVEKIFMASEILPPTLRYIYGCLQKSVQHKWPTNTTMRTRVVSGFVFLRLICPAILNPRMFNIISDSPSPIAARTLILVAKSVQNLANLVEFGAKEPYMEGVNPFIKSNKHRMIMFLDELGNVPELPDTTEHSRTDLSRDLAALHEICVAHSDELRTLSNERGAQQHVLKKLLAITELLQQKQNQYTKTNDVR

[6] = target: BLK SH2 domain (human) (UniProt P51451); experiment: as above
Sequence of BLK SH2 domain (human) (P51451 124-220): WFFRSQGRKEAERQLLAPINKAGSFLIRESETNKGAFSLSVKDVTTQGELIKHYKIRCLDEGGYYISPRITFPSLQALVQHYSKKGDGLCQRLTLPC

[7] = target: SYK tandem SH2 domains (human); experiment: as above
[8] = target: TNS1 SH2 domain (human) (UniProt Q9HBL0); experiment: as above
Sequence of TNS1 SH2 domain (human) (Q9HBL0 1567-1676): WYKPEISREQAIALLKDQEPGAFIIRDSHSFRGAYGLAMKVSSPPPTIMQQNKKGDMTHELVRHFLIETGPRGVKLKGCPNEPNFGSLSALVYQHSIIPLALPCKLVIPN

[9] = target: SYK N-terminal SH2 domain (human); experiment: as above
[10] = target: YES1 SH2 domain (human) (UniProt P07947); experiment: as above
Sequence of YES1 SH2 domain (human) (P07947 158-255): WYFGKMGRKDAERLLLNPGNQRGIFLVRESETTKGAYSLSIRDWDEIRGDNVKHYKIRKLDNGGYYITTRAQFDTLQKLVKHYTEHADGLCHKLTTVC

[11] = target: PLCG2 tandem SH2 domains (human); experiment: as above
[12] = target: ErbB1 pY978 phosphopeptide, rhodamine-labelled (human); experiment: fluorescence polarisation; saturation binding in solution: rhodamine peptide fixed at 10 nM, protein titrated 0.002-10 uM, 20 min at room temperature; assay buffer 20 mM HEPES, 100 mM KCl, 0.1% Tween-20, 5 mM DTT, pH 7.8; apparent KD
[13] = target: ErbB1 pY801 phosphopeptide, rhodamine-labelled (human); experiment: as above
[14] = target: MET pY1313 phosphopeptide, rhodamine-labelled; experiment: as above
[15] = target: ErbB1 pY900 phosphopeptide, rhodamine-labelled (human); experiment: as above
[16] = target: ErbB4 pY833 phosphopeptide, rhodamine-labelled (human); experiment: as above
[17] = target: ErbB4 pY906 phosphopeptide, rhodamine-labelled (human); experiment: as above
[18] = target: ErbB2 pY685 phosphopeptide, rhodamine-labelled (human); experiment: as above
[19] = target: KIT pY936 phosphopeptide, rhodamine-labelled; experiment: as above
[20] = target: SHC3 SH2 domain (human) (UniProt Q92529); experiment: SPR; Biacore 3000; 6X His SH2 proteins held on a Ni-NTA chip, dye-free peptides in solution, equilibrium
Sequence of SHC3 SH2 domain (human) (Q92529 499-590): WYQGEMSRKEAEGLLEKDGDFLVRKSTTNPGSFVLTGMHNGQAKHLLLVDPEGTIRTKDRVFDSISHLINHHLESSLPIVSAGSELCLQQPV

[21] = target: PIK3R3 C-terminal SH2 domain (human); experiment: as above
[22] = target: PIK3R1 N-terminal SH2 domain (human); experiment: as above
[23] = target: PLCG1 C-terminal SH2 domain (human); experiment: as above
[24] = target: TNS3 SH2 domain (human) (UniProt Q68CZ2); experiment: as above
Sequence of TNS3 SH2 domain (human) (Q68CZ2 1172-1282): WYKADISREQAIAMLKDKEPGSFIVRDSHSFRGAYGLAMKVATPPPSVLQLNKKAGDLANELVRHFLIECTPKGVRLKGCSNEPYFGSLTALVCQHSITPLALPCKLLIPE

[25] = target: TEC SH2 domain (human) (UniProt P42680); experiment: peptide or protein array; SH2/PTB proteins spotted on aldehyde slides, rhodamine peptide titrated in buffer B (20 mM HEPES, 100 mM KCl, 0.1% Tween-20, 5 mM DTT, pH 7.8), 1 h at room temperature; replicate assays
Sequence of TEC SH2 domain (human) (P42680 247-345): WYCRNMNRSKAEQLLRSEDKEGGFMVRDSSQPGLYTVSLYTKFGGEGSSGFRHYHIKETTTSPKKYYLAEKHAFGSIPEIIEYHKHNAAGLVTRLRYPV

[26] = target: PLCG1 tandem SH2 domains (human); experiment: as above
[27] = target: GRAP2 SH2 domain (human) (UniProt O75791); experiment: as above
Sequence of GRAP2 SH2 domain (human) (O75791 58-149): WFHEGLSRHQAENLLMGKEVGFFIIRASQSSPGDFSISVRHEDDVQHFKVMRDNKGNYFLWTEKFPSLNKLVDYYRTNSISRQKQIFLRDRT

[28] = target: ITK SH2 domain (human) (UniProt Q08881); experiment: as above
Sequence of ITK SH2 domain (human) (Q08881 239-338): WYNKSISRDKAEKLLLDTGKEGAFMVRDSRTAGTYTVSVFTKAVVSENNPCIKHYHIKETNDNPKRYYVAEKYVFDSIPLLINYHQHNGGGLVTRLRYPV

[29] = target: TNS3 SH2 domain (human) (UniProt Q68CZ2); experiment: as above
[30] = target: LCK SH2 domain (human) (UniProt P06239); experiment: as above
Sequence of LCK SH2 domain (human) (P06239 127-224): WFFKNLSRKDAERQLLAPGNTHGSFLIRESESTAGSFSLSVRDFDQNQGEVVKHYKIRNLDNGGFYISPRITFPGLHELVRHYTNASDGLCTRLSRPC

[31] = target: SRC SH2 domain (human) (UniProt P12931); experiment: as above
[32] = target: SH2D3A SH2 domain (human) (UniProt Q9BRG2); experiment: as above
Sequence of SH2D3A SH2 domain (human) (Q9BRG2 15-114): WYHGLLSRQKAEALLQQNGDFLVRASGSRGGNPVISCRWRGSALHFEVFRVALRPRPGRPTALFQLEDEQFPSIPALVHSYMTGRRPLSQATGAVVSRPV

Kd [1]: 7.73 nM
Kd [2]: 10 nM
Kd [3]: 6.4 µM
Kd [4]: 3.2 µM
Kd [5]: 5.15 µM
Kd [6]: 199 nM
Kd [7]: 785 nM and 4980 nM
Kd [8]: 1.44 nM
Kd [9]: 2400 nM
Kd [10]: 735 nM and 2260 nM
Kd [11]: 1190 nM
Substance: ErbB3 pY1132 phosphopeptide, rhodamine-labelled, for protein microarrays

Kd [17]: 1840 nM
Kd [14]: 255 nM
Kd [15]: 5.83 µM
Kd [18]: 4.43 µM
Kd [19]: 8.38 µM
Substance: PIK3R3 C-terminal SH2 domain (domain or fragment)

Kd [22]: 2800 nM
Kd [23]: 2330 nM
Kd [24]: 916 nM
Substance: ErbB1 pY801 phosphopeptide, dye-free

The next lines start with the substance.

Substance: PLCG1 C-terminal SH2 domain (domain or fragment)
Kd [12]: 1370 nM
Kd [13]: 9.44 µM
Kd [14]: 2280 nM
Kd [15]: 15.5 µM
Kd [16]: 4.73 µM

Substance: ErbB4 pY906 phosphopeptide, dye-free
Kd [20]: 6.71 µM
Kd [21]: 566 nM

Substance: ErbB3 pY789 phosphopeptide, rhodamine-labelled, for protein microarrays
Kd [25]: 1660 nM
Kd [26]: 380 nM
Kd [27]: 1310 nM
Kd [28]: 1160 nM
Kd [2]: 1190 nM
Kd [29]: 802 nM
Kd [30]: 550 nM and 1140 nM and 1120 nM
Kd [31]: 1850 nM and 424 nM
Kd [32]: 170 nM and 401 nM and 402 nM
Kd [9]: 609 nM and 1330 nM

Source: paper PMC3433420
